Measurements as given in article PMC7911427, “Interactions of Bacillus subtilis Basement Spore Coat Layer Proteins” (Microorganisms, 2021).

T1: SpoIVA, adenylate cyclase T18/T25 hybrid (Bacillus subtilis, UniProt P35149 1-492)
T1 construct: SpoIVA, basement layer coat morphogenetic protein (ATPase) of Bacillus subtilis; gene amplified from genomic DNA; also called T25-SpoIVA; T18-SpoIVA; source: bacterial two-hybrid fusion, E. coli BTH101; not shown: T18 or T25 domain of adenylate cyclase, N-terminal or C-terminal (by the plasmid combination), kept
T1 sequence (looked up): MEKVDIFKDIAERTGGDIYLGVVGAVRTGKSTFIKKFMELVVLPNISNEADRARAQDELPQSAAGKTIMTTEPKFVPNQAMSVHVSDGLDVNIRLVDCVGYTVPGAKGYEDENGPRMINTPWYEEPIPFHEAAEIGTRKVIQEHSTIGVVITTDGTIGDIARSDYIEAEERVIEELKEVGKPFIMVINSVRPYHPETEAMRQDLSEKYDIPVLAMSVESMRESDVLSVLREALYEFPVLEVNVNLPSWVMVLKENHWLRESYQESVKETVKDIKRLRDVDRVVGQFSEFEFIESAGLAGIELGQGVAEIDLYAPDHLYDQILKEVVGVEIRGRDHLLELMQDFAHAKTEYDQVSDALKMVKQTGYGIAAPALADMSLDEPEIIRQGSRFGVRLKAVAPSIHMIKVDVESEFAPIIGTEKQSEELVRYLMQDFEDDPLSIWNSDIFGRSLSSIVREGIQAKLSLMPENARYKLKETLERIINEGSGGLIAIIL

B1: YhaX, adenylate cyclase T18/T25 hybrid (natural protein, Bacillus subtilis, UniProt O07539 1-288, looked up)
chain: MSKQLLALNIDGALLRSNGKIHQATKDAIEYVKKKGIYVTLVTNRHFRSAQKIAKSLKLDAKLITHSGAYIAEKIDAPFFEKRISDDHTFNIVQVLESYQCNIRLLHEKYSIGNKKKVNSNLLGKALIHPSDPIFYPVQFVESLSDLLMDEPVSAPVIEVYTEHDIQHDITETITKAFPAVDVIRVNDEKLNIVPKGVSKEAGLALVASELGLSMDDVVAIGHQYDDLPMIELAGLGVAMGNAVPEIKRKADWVTRSNDEQGVAYMMKEYFRMQQRKGFLDKFHMKRV
notes: YhaX, spore coat protein of unknown function of Bacillus subtilis; gene amplified from genomic DNA; also called T25–YhaX; YhaX–T18; source: bacterial two-hybrid fusion, E. coli BTH101; not shown: T18 or T25 domain of adenylate cyclase, N-terminal or C-terminal (by the plasmid combination), kept
B2: YheD, adenylate cyclase T18/T25 hybrid (natural protein, Bacillus subtilis, UniProt O07545 1-453, looked up)
chain: MNPKRFLIGIDKTSENTLFLPSSLKQDGLLHAAFGTKVVRCHVAYRRHLEQTVLLSENLFHELLLPHRSRADILIHDHTVHIGPLVGIFTAGFTVSLERPFKDRSLFFSKLVTLHEQAGGYCFVFGAHQINWEEGTIEGLLYRENGWEKKIVPLPNVVYDRLPNRKIEDSLLLQHTKKRLIDEYQIPWFNKTFFNKWNVHQLLEKDPRTAPFLPRSELTPSVELIDELCGAYKKVYIKPANGALGTGIYQLTRTDGGLTVKHTNDAKTFTSIDYSDAASFLAEFQKHHNPSDFLIQQGVDLIEFQGKPADFRVHTNKNRKGKWTVTAIAVKISGKNSITTHLSNGGTVKTLAEVYDDPAERVEVIKKLSAAALTASHVLHDHIEGFIGEIGFDFGIDQNGKVWMFEANSRPGRSIFSHPNLHHVDSLTKRRSFEYASYLSEKAITSPEALWPS
notes: YheD, spore coat protein of unknown function of Bacillus subtilis; gene amplified from genomic DNA; also called T25–YheD; YheD–T18; source: bacterial two-hybrid fusion, E. coli BTH101; not shown: T18 or T25 domain of adenylate cyclase, N-terminal or C-terminal (by the plasmid combination), kept
B3: SpoVD, adenylate cyclase T18/T25 hybrid (natural protein, Bacillus subtilis, UniProt Q03524 1-646, looked up)
chain: MRVSNVTVRKRLLFVLLFGVIVFLIIDTRLGYVQFVMGEKLTSLAKDSWSRNLPFEPERGEILDRNGVKLATNKSAPTVFVVPRQVQNPMKTSKQLAAVLNMSEEKVYKHVTKKASIEKITPEGRKISNEKAKEIKALDLKGVYVAEDSIRHYPFGSFLSHVLGFAGIDNQGLLGLEAYYDDDLKGEKGSVKFYTDAKGKKMPDEADDYTPPKDGLDMKLTVDSKVQTIMERELDNAEAKYHPDGMIAVAMNPKNGEILGMSSRPDFDPADYQSVDPSVYNRNLPVWSTYEPGSTFKIITLAAALEEQKVNLKRDQFYDKGHAEVDGARLRCWKRGGHGLQTYLEVVQNSCNPGFVELGERLGKEKLFKYIKDFGFGQKTGIDLQGEGTGILFPLERVGPVEQATTAFGQGVSVTPIQQVAAVSAAVNGGTLYTPYIAKEWIDPVTKKTVKKQSPIAKKQVISEETSKQIRYALESVVAEGTGRNAFVEGYRVGGKTGTAQKVKDGKYLENNHIVSFIGFAPADDPSLVVYVAVDNPKGTIQFGGTVAAPIVGNIMRDSLPELGVKPRKNQIEKKYQWNDTKTIEVPNVVGMSVSDLESLLVNLNVDASGKGSKIVKQSPAAGTKVKEGSKIRVYLTEEDEKEAAD
notes: gene amplified from genomic DNA; the positive combinations are N-terminal fusions; also called T18–SpoVD; T25–SpoVD; source: bacterial two-hybrid fusion, E. coli BTH101; not shown: T18 or T25 domain of adenylate cyclase, N-terminal, kept
B4: CotE, adenylate cyclase T18/T25 hybrid (natural protein, Bacillus subtilis, UniProt P14016 1-181, looked up)
chain: MSEYREIITKAVVAKGRKFTQCTNTISPEKKPSSILGGWIINHKYDAEKIGKTVEIEGYYDINVWYSYADNTKTEVVTERVKYVDVIKLRYRDNNYLDDEHEVIAKVLQQPNCLEVTISPNGNKIVVQAEREFLAEVVGETKVVVEVNPDWEEDDEEDWEDELDEELEDINPEFLVGDPEE
notes: CotE, spore coat morphogenetic protein of Bacillus subtilis; gene amplified from genomic DNA; also called CotE-T25; T25-CotE; source: bacterial two-hybrid fusion, E. coli BTH101; not shown: T18 or T25 domain of adenylate cyclase, N-terminal or C-terminal (by the plasmid combination), kept
B5: SpoVE, adenylate cyclase T18/T25 hybrid (natural protein, Bacillus subtilis, UniProt P07373 1-366, looked up)
chain: MTTKKTSPDLLLVIITLLLLTIGLIMVYSASAVWADYKFDDSFFFAKRQLLFAGIGVIAMFFIMNVDYWTWRTWSKLLMVICFFLLVLVLIPGVGMVRNGSRSWIGVGAFSIQPSEFMKLAMIAFLAKFLSEKQKNITSFRRGFVPALGIVFSAFLIIMCQPDLGTGTVMVGTCIVMIFVAGARIAHFVFLGLIGLSGFVGLVLSAPYRIKRITSYLNPWEDPLGSGFQIIQSLYAVGPGGLFGMGLGQSRQKFFYLPEPQTDFIFAILSEELGFIGGTLILLLFSVLLWRGIRIALGAPDLYGSFVAVGIISMIAIQVMINIGVVTGLIPVTGITLPFLSYGGSSLTLMLMAVGVLLNVSRYSRY
notes: SpoVE, SEDS family membrane protein essential for cortex synthesis, Bacillus subtilis; gene amplified from genomic DNA; also called SpoVE–T18; T25–SpoVE; source: bacterial two-hybrid fusion, E. coli BTH101; not shown: T18 or T25 domain of adenylate cyclase, N-terminal or C-terminal (by the plasmid combination), kept
B6: YncD (spore alanine racemase), adenylate cyclase T18/T25 hybrid (natural protein, Bacillus subtilis, UniProt P94494 1-394, looked up)
chain: MIKLCREVWIEVNLDAVKKNLRAIRRHIPHKSKIMAVVKANGYGHGSIEVARHALEHGASELAVASVEEGIVLRKAGITAPILVLGFTSLSCVKKSAAWNITLSAFQVDWMKEANEILEKEASANRLAIHINVDTGMGRLGVRTKEELLEVVKALKASKFLRWTGIFTHFSTADEPDTTLTKLQHEKFISFLSFLKKQGIELPTVHMCNTAAAIAFPEFSADMIRLGIGLYGLYPSAYIKQLNLVKLEPALSLKARIAYVKTMRTEPRTVSYGATYIAEPNEVIATLPIGYADGYSRALSNRGFVLHRGKRVPVAGRVTMDMIMVSLGENGEGKQGDEVVIYGKQKGAEISVDEVAEMLNTINYEVVSTLSRRIPRFYIRDGEIFKVSTPVLYV
notes: YncD, spore alanine racemase of Bacillus subtilis; gene amplified from genomic DNA of strain PY79; Cloned into pUT18, pUT18C, pKT25 and pKNT25; also called T18-YncD; YncD-T18; source: bacterial two-hybrid fusion, E. coli BTH101; not shown: T18 or T25 domain of adenylate cyclase, N-terminal or C-terminal (by the plasmid combination), kept

Experiments:
Assay in all cases: two-hybrid; bacterial two hybrid system (BACTH) based on adenylate cyclase T18/T25 fusions in E. coli BTH101; X-gal/IPTG indicator plates at 30 °C for 48 h; beta-galactosidase activity with ONPG in Miller units (Mu)
[1] = molecular target: the molecule itself
[2] = molecular target: T2, SpoVM, adenylate cyclase T18/T25 hybrid (Bacillus subtilis, UniProt P37817 1-26); conditions: partners not purified
T2 construct: SpoVM, small 26-amino-acid-long basement layer coat morphogenetic peptide of Bacillus subtilis; gene amplified from genomic DNA; also called T18–SpoVM; SpoVM–T18; source: bacterial two-hybrid fusion, E. coli BTH101; not shown: T18 or T25 domain of adenylate cyclase, N-terminal or C-terminal (by the plasmid combination), kept
T2 sequence (P37817 whole entry, the tested form may be a part): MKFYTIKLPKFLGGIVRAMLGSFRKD

[3] = molecular target: B4; conditions: partners not purified
[4] = molecular target: T1, SpoIVA, adenylate cyclase T18/T25 hybrid; conditions: partners not purified

Binder | beta-galactosidase activity (Miller units) [1] [Mu] | other results
B1 | 704 | 
B2 | 1720 | 
B3 | 240 | beta-galactosidase activity (Miller units) [2]: 420 Mu
B4 | 360 | 
B5 | ≤ 360 | beta-galactosidase activity, fold of the negative control [2]: ~2 fold
B6 | 220 | beta-galactosidase activity (Miller units) [3]: 600 Mu; beta-galactosidase activity (Miller units) [4]: 160 Mu
